Results published in US7648964B2, “Use of lacritin in promoting ocular cell survival” (University of Virginia Patent Foundation, priority 2004, dated 2010).

B1: lacritin: recombinant human lacritin from E. coli; mature 119 residue fragment (SEQ ID NO:10) of native lacritin SEQ ID NO:4 (protein, listed as Homo sapiens)
chain: EDASSDSTGADPAQEAGTSKPNEEISGPAEPASPPETTTTAQETSAAAVQGTAKVTSSRQELNPLKSIVEKSILLTEQALAKAGKGMHGGVPGGKQFIENGSEFAQKLLKKFSLLKPWA

Assays:
NFAT = NFAT changes by Western blotting in HSG cells; format: cell-based, human
From the text: There has been more evidence regarding PKC alpha translocation and NFAT activation.

RelA (p65) = experiment: Nuclear translocation of NF-kappaB subunit RelA (p65) in HSG cells; format: cell-based, human
From the text: Nuclear translocation of this transcription factor has also been observed after lacritin treatment. Very little RelA was initially observed in the nuclear compartment in resting HSG cells.

[1] = tested on: tyrosine phosphorylation of phosphoproteins in HSG cells; experiment: Phosphotyrosine blotting in HSG cells; format: cell-based, human; conditions: within the first minute
Protocol: For phosphotyrosine blotting and mitogenesis assays, cells in serum-containing media were seeded overnight in 24-well plates at a density of 0.5×10^5 cells/mm^2 corresponding to 20-30% confluency after cell attachment, incubated in serum-free media without supplements for 24 h (phosphotyrosine) or washed with serum-free media without supplements three times (mitogenesis) and incubated with lacritin (1-1000 nM), or positive controls EGF (1.6 nM) and 10% fetal bovine serum, or negative controls bovine serum albumin or no additive in serum-free media without supplements for the indicated times (phosphotyrosine) or 30 h (mitogenesis). […] After washing, bound antibodies were detected with peroxidase-labeled secondary antibody and ECL. […] Incorporation was stopped with ice-cold phosphate buffered saline and followed by addition of cold and then room temperature trichloracetic acid (10%) for 10 min each, washing of cells with phosphate buffered saline, solubilization with 1 N sodium hydroxide, neutralization with 1 N hydrochloric acid, addition of scintillation fluid and then quantitation in a scintillation counter. […] Seventy-two hours post-transfection, mitogenesis was assessed by co-addition of 10 […] lacritin and [^3H]-thymidine (2 mCi/ml) (Amersham, Piscataway N.J.) for 24 hrs. […]

[2] = tested on: 48 kDa band in rat lacrimal cells; experiment: Tyrosine phosphorylation of 48 kDa band, rat lacrimal cells; format: cell-based
Protocol: (§1) Freshly isolated rat lacrimal acinar cells, and HSG (human salivary gland) ductal and HCE (human corneal epithelial) cell lines were used to study lacritin function. For secretion studies, rat acinar cells were plated serum-free overnight on wells co-coated with 0.05 μM laminin 1 (to ensure adhesion) and 0 to 20 μM lacritin, or alternatively with laminin-1 (0.05 μM) and treated the next day with serum-free medium containing 0 to 162 ng/ml of soluble lacritin for four hours. Unstimulated and stimulated (carbachol 10^−4 M/VIP 10^−8 M) secretions were then collected, assessed (peroxidase assay) and normalized to μg cellular DNA. To study tyrosine phosphorylation, overnight serum-free cultures of both rat lacrimal acinar and HSG cells were washed and treated with 10 ng/ml of soluble lacritin for 0.5, 2.5, 10, and 30 minutes. Py(20) anti-phosphotyrosine antibody immunoprecipitation of cell lysates was then examined in Western blots of 7% SDS PAGE gels using Py(20) and ECL for detection. […] Using an inverted Zeiss 510 LSM for visualization, 50 second baseline images were first recorded. While the laser was running, lacritin was added (final concentration 4 and 40 ng/ml) and the response continually monitored every 786 msec for a minimum of 200 sec.

HSG cells = experiment: FACS analysis of apoptosis (sub G0/G1) of HSG cells in nutrient depleted medium; format: cell-based, human
Protocol: HSG cells were cultured for different times in alpha-MEM medium, with or without lacritin (0.4 nM), then fixed with ice-old 70% ethanol and stained with propidium iodide at saturating condition, and examined by FACS. FIG. 3A is a bar graph of the resulting data plotting the number of cells entering apoptosis (the sub G0/G1 population) vs. time. After 24 hrs, cells without lacritin show very large DNA fragmentation or apoptosis. FIGS. 3B and 3C are graphic representations of flow cytometry readings showing that significant DNA fragmentation occurs in the cells cultured in the absence of lacritin (a sub G0/G1 population is indicated as a left shoulder of the large peak of FIG. 3B) but not present in FIG. 3C).
Subsequent flow cytometry (FACS) analysis was carried out to monitoring the time course of cell death and survival promotion function of lacritin. […] Lacritin protected cells from death in nutrient depleted medium (alpha MEM) up to 96 hours or longer. Cells cultured in the absence of lacritin undergo apoptosis starting at about 24 hours and over 50% cells are apoptotic after 48 hours of culture.

[3] = tested on: rat lacrimal acinar cells; experiment: Secretion by freshly isolated rat lacrimal acinar cells (peroxidase assay); format: cell-based
Protocol: as §1, with “minutes.” for “minutes. Py(20) anti-phosphotyrosine antibody immunoprecipitation of cell lysates was then examined in Western blots of 7% SDS PAGE gels using Py(20) and ECL for detection.”
Lacritin function of three types of epithelial cells was assessed in serum-free cultures of: 1) lacrimal acinar; 2) salivary ductal; and 3) corneal epithelial cells using secretion (acinar), proliferation (ductal), tyrosine phosphorylation (acinar, ductal) and calcium signaling (corneal epithelial) assays. […]

Row | Molecule | effect on lacritin-induced changes of NFAT (NFAT) | nuclear RelA at 4 hours (RelA (p65); 4 hours after initial contact with lacritin) | time of peak nuclear RelA (RelA (p65); lacritin treatment) | time to detectable RelA in nucleus (RelA (p65); lacritin treatment) [min] | tyrosine phosphorylation of at least nine phosphoproteins [1] | tyrosine phosphorylation of a 48 kDa band [2] | DNA fragmentation (HSG cells; lacritin 10 ng/ml, alpha MEM) | duration of protection from death (HSG cells; nutrient depleted medium (alpha MEM)) [h] | stimulated secretory pathways ([3]; activated by agonists carbachol and VIP) | unstimulated secretion ([3]; coated and soluble lacritin, serum-free)
1 | Cn1c2ccccc2c2c3c(c4c5ccccc5n(CCC#N)c4c21)CNC3=O [Go 6976] | abolish changes of NFAT | – | – | – | – | – | – | – | – | –
2 | B1 | – | high level of RelA was still observed | between 15 minutes to 1 hour | 1 | transient tyrosine phosphorylation | promoted the transient tyrosine phosphorylation | no noticeable DNA fragmentation | ≥ 96 | no effect | enhanced unstimulated secretion in a dose-dependent manner
